# In patent publication US6869778 (Scripps Research, dated 2005):
# Target: plasminogen activator inhibitor, type 1 (PAI-1) (UniProt P05121 24-402)
# Experiment: enzyme preincubated with PAI-1 under pseudo-first order conditions at 23 degrees Celsius; residual activity read in indirect chromogenic assay
# Protocol: Second order rate constants for the inhibition of wild type human t-PA and variant t-PA were measured under pseudo-first order conditions as previously described. Briefly, enzyme and inhibitor were preincubated at 23 degrees Celsius for periods of time varying from 0–30 minutes. Following preincubation, the mixtures were diluted, and the residual enzymatic activity was measured in a standard indirect chromogenic assay. For each enzyme, the concentrations of enzyme and inhibitor and the times of preincubation were chosen to yield several data points for which the residual enzymatic activity varied between 20% and 80% of the initial activity. Data were analyzed by plotting the natural logarithm of the ratio (residual activity/initial activity) versus time of preincubation and measuring the resulting slopes. Division of this slope by –[I] yielded the second order rate constants shown.
# plasminogen activator inhibitor, type 1 (PAI-1), sequence (P05121 24-402 limits assumed): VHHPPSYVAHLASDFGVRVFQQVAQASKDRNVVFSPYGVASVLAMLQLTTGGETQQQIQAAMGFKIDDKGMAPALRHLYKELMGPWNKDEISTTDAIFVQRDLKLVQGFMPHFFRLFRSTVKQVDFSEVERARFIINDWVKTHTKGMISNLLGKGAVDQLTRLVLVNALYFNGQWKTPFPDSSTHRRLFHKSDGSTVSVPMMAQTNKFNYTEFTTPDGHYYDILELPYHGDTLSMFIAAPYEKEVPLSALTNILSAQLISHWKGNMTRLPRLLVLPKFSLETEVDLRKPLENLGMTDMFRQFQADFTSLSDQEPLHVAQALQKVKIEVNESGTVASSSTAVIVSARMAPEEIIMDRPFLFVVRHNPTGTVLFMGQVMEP
row,Second Order Rate Constant for inhibition by PAI-1 [M⁻¹ s⁻¹],Binder
1,1.8e+06,"t-PA/R275E, single-chain form (enzyme, Noncleavable single-chain enzyme, secreted from COS-1 cells only as a single chain) SYQVICRDEKTQMIYQQHQSWLRPVLRSNRVEYCWCNSGRAQCHSVPVKSCSEPRCFNGGTCQQALYFSDFVCQCPEGFAGKCCEIDTRATCYEDQGISYRGTWSTAESGAECTNWNSSALAQKPYSGRRPDAIRLGLGNHNYCRNPDRDSKPWCYVFKAGKYSSEFCSTPACSEGNSDCYFGNGSAYRGTHSLTESGASCLPWNSMILIGKVYTAQNPSAQALGLGKHNYCRNPDGDAKPWCHVLKNRRLTWEYCDVPSCSTCGLRQYSQPQFEIKGGLFADIASHPWQAAIFAKHRRSPGERFLCGGILISSCWILSAAHCFQERFPPHHLTVILGRTYRVVPGEEEQKFEVEKYIVHKEFDDDTYDNDIALLQLKSDSSRCAQESSVVRTVCLPPADLQLPDWTECELSGYGKHEALSPFYSERLKEAHVRLYPSSRCTSQHLLNRTVTDNMLCAGDTRSGGPQANLHDACQGDSGGPLVCLNDGRMTLVGIISWGLGCGQKDVPGVYTKVTNYLDWIRDNMRP"
2,210000,"t-PA/R275E,H417E, single-chain form (enzyme) SYQVICRDEKTQMIYQQHQSWLRPVLRSNRVEYCWCNSGRAQCHSVPVKSCSEPRCFNGGTCQQALYFSDFVCQCPEGFAGKCCEIDTRATCYEDQGISYRGTWSTAESGAECTNWNSSALAQKPYSGRRPDAIRLGLGNHNYCRNPDRDSKPWCYVFKAGKYSSEFCSTPACSEGNSDCYFGNGSAYRGTHSLTESGASCLPWNSMILIGKVYTAQNPSAQALGLGKHNYCRNPDGDAKPWCHVLKNRRLTWEYCDVPSCSTCGLRQYSQPQFEIKGGLFADIASHPWQAAIFAKHRRSPGERFLCGGILISSCWILSAAHCFQERFPPHHLTVILGRTYRVVPGEEEQKFEVEKYIVHKEFDDDTYDNDIALLQLKSDSSRCAQESSVVRTVCLPPADLQLPDWTECELSGYGKEEALSPFYSERLKEAHVRLYPSSRCTSQHLLNRTVTDNMLCAGDTRSGGPQANLHDACQGDSGGPLVCLNDGRMTLVGIISWGLGCGQKDVPGVYTKVTNYLDWIRDNMRP"
3,150000,"t-PA/R275E,H417D, single-chain form (enzyme) SYQVICRDEKTQMIYQQHQSWLRPVLRSNRVEYCWCNSGRAQCHSVPVKSCSEPRCFNGGTCQQALYFSDFVCQCPEGFAGKCCEIDTRATCYEDQGISYRGTWSTAESGAECTNWNSSALAQKPYSGRRPDAIRLGLGNHNYCRNPDRDSKPWCYVFKAGKYSSEFCSTPACSEGNSDCYFGNGSAYRGTHSLTESGASCLPWNSMILIGKVYTAQNPSAQALGLGKHNYCRNPDGDAKPWCHVLKNRRLTWEYCDVPSCSTCGLRQYSQPQFEIKGGLFADIASHPWQAAIFAKHRRSPGERFLCGGILISSCWILSAAHCFQERFPPHHLTVILGRTYRVVPGEEEQKFEVEKYIVHKEFDDDTYDNDIALLQLKSDSSRCAQESSVVRTVCLPPADLQLPDWTECELSGYGKDEALSPFYSERLKEAHVRLYPSSRCTSQHLLNRTVTDNMLCAGDTRSGGPQANLHDACQGDSGGPLVCLNDGRMTLVGIISWGLGCGQKDVPGVYTKVTNYLDWIRDNMRP"
